The target of test [1] is T1, TgSlyDΔIF.
T1 construct: scaffold without hairpin insert, negative control
T1 chain: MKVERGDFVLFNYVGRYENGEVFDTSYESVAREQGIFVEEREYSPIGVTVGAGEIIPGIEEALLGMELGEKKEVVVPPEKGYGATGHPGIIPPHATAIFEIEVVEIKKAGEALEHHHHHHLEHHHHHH
In words: ELISA, coated antigen 0.5 µg/ml, hybridoma supernatant. As to the method:
For the ELISA the screening an antigen down format was used. […] Hybridoma Supernatant was added to the plates and incubated for 1 h at room temperature. Bound antibody was detected with a HRP-labeled F(ab′)₂ goat anti-mouse Fcγ (Dianova) and ABTS (Roche) was used as a HRP-substrate.
A general note: ELISA stands for enzyme-linked immunosorbent assay.

The target in test [2] is T2, HER3 ECD-HRG complex (human, UniProt P21860 20-643).
T2 construct: HER3 ECD preincubated with a 3- to 6-fold molar excess of Heregulin ('open' conformation); biotinylated Her3-ECD in the ribosome display; also called HER3-ECD/HRG1β
As to the kind of experiment: SPR Biacore T100; reference: HER3-ECD without Heregulin. As to the method: A CM5 series sensor was mounted into the system and was normalized in HBS-ET buffer (10 mM HEPES pH 7.4, 150 mM NaCl, 3 mM EDTA, 0.005% w/v Tween 20) according to the manufacturer's instructions. The sample buffer was the system buffer supplemented with 1 mg/ml CMD (Carboxymethyldextran, Sigma #86524). The system operated at 25° C. 6500 RU RAM-Fcγ (relative units of Fcγ-fragment RamIgG, GE Healthcare) were immobilized according to the manufacturer's instructions using EDC/NHS chemistry on all four flow cells. The sensor was deactivated using 1M ethanolamine.
On the technique in general: In SPR one partner is held on a chip, and binding of the other changes the refractive index at the surface.

The target in test [3] is T3, HER4 ECD-HRG complex (human, UniProt Q15303 26-651).
T3 construct: HER4 ECD preincubated with a 5-fold molar excess of Heregulin
T3 sequence 1: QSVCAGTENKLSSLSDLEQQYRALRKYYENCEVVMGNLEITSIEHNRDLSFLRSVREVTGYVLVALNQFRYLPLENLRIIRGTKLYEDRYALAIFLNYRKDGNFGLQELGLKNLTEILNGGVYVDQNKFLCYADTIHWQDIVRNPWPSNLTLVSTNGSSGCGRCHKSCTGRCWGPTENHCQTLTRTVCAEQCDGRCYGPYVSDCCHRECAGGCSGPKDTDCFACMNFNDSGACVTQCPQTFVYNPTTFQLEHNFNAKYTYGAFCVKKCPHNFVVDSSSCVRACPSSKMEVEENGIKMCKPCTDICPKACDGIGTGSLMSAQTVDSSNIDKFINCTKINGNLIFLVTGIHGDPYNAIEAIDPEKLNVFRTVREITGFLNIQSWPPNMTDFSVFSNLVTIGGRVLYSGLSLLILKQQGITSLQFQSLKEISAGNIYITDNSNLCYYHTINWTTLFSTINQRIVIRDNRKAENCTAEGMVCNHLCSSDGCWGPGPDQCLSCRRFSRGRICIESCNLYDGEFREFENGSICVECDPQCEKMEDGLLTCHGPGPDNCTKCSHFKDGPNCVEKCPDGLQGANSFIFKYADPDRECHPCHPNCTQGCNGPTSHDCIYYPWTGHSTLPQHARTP
T3 sequence 2: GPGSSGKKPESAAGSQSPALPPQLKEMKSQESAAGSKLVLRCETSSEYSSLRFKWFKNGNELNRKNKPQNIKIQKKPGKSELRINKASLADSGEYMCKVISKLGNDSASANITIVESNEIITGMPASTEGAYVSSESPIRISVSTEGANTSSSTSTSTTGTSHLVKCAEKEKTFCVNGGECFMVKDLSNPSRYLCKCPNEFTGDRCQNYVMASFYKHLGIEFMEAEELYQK
In words: SPR Biacore T100; reference: HER4-ECD without Heregulin.

Test [4] addresses T4, human HER3 Extracellular Domain (ECD) (human, UniProt P21860 20-643).
T4 construct: human recombinant, 68 kDa; 'closed' conformation without ligand; also called Her3 ECD; Her-3 ECD
As to the kind of experiment: SPR Biacore 4000, antibody captured, analyte 150 nM, 25 C. Here is the method: Prior to their application the hybridoma culture supernatants were diluted 1:5 in instrument buffer. The diluted mixtures were injected at a flow rate of 30 μl/min for 2 min. The antibody capture level (CL) in response units was monitored. Immediately thereafter the respective antigen was injected at a flow rate of 30 μl/min for 3 min association time. Thereafter, the antibody-antigen complex dissociation signal was recorded for 5 min. The sensor was regenerated by injecting a 10 mM glycine-HCl solution (pH 1.7) for 2 min at a flow rate of 30 μl/min. The recorded signal shortly before the end of the injection of the antigen was denoted as binding late (BL) in response units. The recorded signal shortly before the end of the recording of the dissociation is denoted as stability late (SL) in response units. The dissociation rate constants were determined calculated The antibody-antigen complex stability in minutes was calculated with the following formula: ln(2)/60*kd. The Molar Ratio was calculated with the formula: MW (antibody)/MW(antigen)*BL (antigen)/CL (antibody).
Binding Late (BL) represents the response units at the end of the analyte injection. The amount of antibody captured as a ligand on the sensor surface is measured as Capture Level (CL) in response units. Together with the information of the molecular weights of the tested analytes, the antibody and the analyte in solution, the Molar Ratio can be calculated. […] Then, the Molar Ratio is also an indicator for the valence mode of analyte binding. The maximum valence can be MR=2 for an antibody binding two analytes, one with each Fab valence.

Test [5] deals with T5, SBP-tagged HER3-ECD (human, UniProt P21860 20-643).
T5 construct: from cell culture supernatant, held on a streptavidin plate; not shown: SBP tag
In words: plate assay: SBP-tagged HER3-ECD on streptavidin plate, M-05-74 titrated in the presence of 10 nM Europium-labeled Heregulin-beta, time-resolved fluorescence; half-maximal promotion of HRG binding. Here is the method:
On the next day the wells were washed three times with washing buffer (PBS+0.05% Tween-20) and blocked with PBS containing 1% BSA for one hour. After another three washes with washing buffer, 40 μl antibody solution (in Delfia Binding Buffer) was added to each well as a 2× stock of the desired final concentrations (10⁻³ to 10³ nM, alternatively 10⁻⁴ to 10² nM). […] The plates were incubated on a shaker at room temperature for two hours. Following three washes with Delfia Wash Buffer, Delfia Enhancement Solution was added and incubated on a shaker for 15 minutes (light protected). Finally, the plates were measured in a Tecan Infinite F200 reader using a time-resolved fluorescence measurement protocol.

B1: anti-HER3/HER4 antibody M-05-74 (antibody, V domains shown)
VH: QVQLQQSGAELAKPGASVKMSCKTSGYTLTDYWIHWVKQRPGQGLEWIGYINPYTGYTESNQKFKDKATLTADKSSNTAYIQLSSLTSEDSAVYYCARPYYYGDYWGQGTTLTVSS
VL: QIVLTQSPAIMSASPGERVTITCSASSSVSYMHWFQQKPGTSPKLLIYSTSNLASGVPARFSGSGSGTSYSLTISRMEAEDAATYYCQQRSSYPFTFGSGTKLEIK
notes: murine monoclonal IgG from hybridoma (supernatant or purified), bivalent; also called M-074; M-5-74
In general, koff refers to the rate constant with which the complex falls apart. Lower therefore signals a long-lived complex. For orientation: EC50 (read off the curve) means the concentration that produces a half-maximal response. Regarding B1, the binding result in test [1] is listed as “no binding”. Also, in test [2], the “ratio MR (+Heregulin)/MR (-Heregulin)” value was 3 fold and the “ratio ka (Her3-ECD-HRG)/ka (Her3-ECD)” value came out at 4.85 fold. In test [3], the “ratio MR (+Heregulin)/MR (-Heregulin)” value was 6 fold and the “ratio ka (Her4-ECD-HRG)/ka (Her4-ECD)” value worked out at 23.9 fold. In addition, in test [4], the “MR (Molar Ratio)” value was found to be 0.5 and the koff was below 1e-05 s⁻¹. Besides, the “EC50 (read off the curve)” value in test [5] was around 0.3 nM.

Values taken from patent US20170233490A1 (Hoffmann-La Roche, published 2017).
